7 molecules from patent US20260209325A1 (SCHOLAR ROCK, published 2026) can be followed below.

The target in assay [1] is T1, human pro-myostatin (human, UniProt O14793 24-375, biotinylated (in the SPR assay)). Put plainly: cell-based or functional assay.
Assay [2] concerns the target T2, recombinant human latent myostatin (human, UniProt O14793 24-375, biotinylated (in the Octet pH assay only)). Put plainly: cell-based or functional assay.
Assay [3] deals with T1, human pro-myostatin. Put plainly: SPR Biacore 8K, biotin-antigen captured.
For assay [4], the target named is T3, murine pro-myostatin (mouse, UniProt O08689 25-376, biotinylated (in the SPR assay)).
T3 construct: also called proGDF8 (mouse); mouse pro-myostatin
The assay can be described thus: SPR Biacore 8K, biotin-antigen captured.

The target in assay [5] is T4, cyno pro-myostatin (cynomolgus monkey, Biotinylated for capture in the SPR assay (site not stated). The native form is a disulfide-linked homodimer, partly furin-cleaved; one chain is given.).
T4 construct: also called proGDF8 (cynomolgus); cynomolgus monkey pro-myostatin
Put plainly: SPR Biacore 8K, biotin-antigen captured.

In a further assay the target is human GDF-11 (human, UniProt O95390 299-407, limits assumed). Put plainly: plate binding assay, OD 450 nm, one antibody concentration that is not given, on Hu-GDF-11 (method not described in the text).
The target of a further assay is mouse GDF-11 (mouse, UniProt Q9Z1W4 297-405, limits assumed). Put plainly: plate binding assay, OD 450 nm, one antibody concentration that is not given, on Mu-GDF-11 (method not described in the text).
Assay [6] addresses T1, human pro-myostatin. Put plainly: plate binding assay, OD 450 nm, antibody titrated 0.0003 to 100 nM, panel 'Hu-Pro-GDF-8 Plate 3' (method not described in the text).
Assay [7] concerns the target T3, murine pro-myostatin. The assay can be described thus: plate binding assay, OD 450 nm, antibody titrated 0.0003 to 100 nM, panel 'Mu-Pro-GDF-8 Plate 3' (method not described in the text).
For assay [8], the target named is T4, cyno pro-myostatin. The assay can be described thus: plate binding assay, OD 450 nm, antibody titrated 0.0003 to 100 nM, panel 'Cyno-Pro-GDF-8 Plate 3' (method not described in the text).
Assay [9] has as its target T1, human pro-myostatin. The assay can be described thus: plate binding assay, OD 450 nm, antibody titrated 0.0003 to 100 nM, panel 'Hu-Pro-GDF-8 Plate 1' (method not described in the text).
For assay [10], the target named is T3, murine pro-myostatin. Put plainly: plate binding assay, OD 450 nm, antibody titrated 0.0003 to 100 nM, panel 'Mu-Pro-GDF-8 Plate 1' (method not described in the text).
Assay [11] concerns the target T2, recombinant human latent myostatin. Put plainly: cell-based or functional assay. The source holds these as a separate data set.
The target is the same in assay [12]. Put plainly: cell-based or functional assay. The source holds these as a separate data set.
Assay [13] has as its target T1, human pro-myostatin. The assay can be described thus: Ab KD, summary Table 11; method and antigen not stated there.
Assay [14] concerns the target T2, recombinant human latent myostatin. The assay can be described thus: BLI (Octet Red384): streptavidin biosensors loaded with biotinylated human latent myostatin, antibody association 300 s, dissociation in PBS at pH 7.4 or pH 5.5. The protocol:
(§1) Binding was performed at pH 7.4 and dissociation at pH 5.5 in an Octet Red384@assay. Streptavidin biosensors were baselined in 1x kinetics buffer (KB) (Sartorius) for one minute, then loaded with 100 nM biotinylated human latent myostatin for five minutes, followed by another baseline step of one minute in 1x KB. Binding of test antibodies was performed for five minutes and then dissociation was performed in PBS at either pH 7.4 or pH 5.5 for five minutes. Analysis was performed using a partial fit, in which full dissociation was projected. Kd at pH 5.5 was divided by Kd at pH 7.4 to calculate pH sensitivity.

The target is the same in assay [15]. The assay is described as above. As for the experimental part:
as §1
This is another data set of the same source.

The target of assay [16] is T4, cyno pro-myostatin. The assay can be described thus: plate binding assay, absorbance at 450 nm, antibody titrated 100 to about 0.002 nM, panel 'Cyno Pure Pro-GDF-8' (method not described in the text).
Assay [17] addresses T1, human pro-myostatin. The assay can be described thus: plate binding assay, absorbance at 450 nm, antibody titrated 100 to about 0.002 nM, panel 'Human Pure Pro-GDF-8' (method not described in the text).

Where two headings read alike, the source gives them in different places.

Chain of human GDF-11 (O95390 299-407 limits assumed): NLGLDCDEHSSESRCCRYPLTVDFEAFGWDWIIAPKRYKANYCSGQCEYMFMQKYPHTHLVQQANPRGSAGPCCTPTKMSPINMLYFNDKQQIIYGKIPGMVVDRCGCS
Chain of mouse GDF-11 (Q9Z1W4 297-405 limits assumed): as the sequence (O95390 299-407 limits assumed) above

B1: Ab127 (antibody, human IgG4 S228P, kappa, V domains shown)
VH: EVQLVESGGGLVQPGGSLRLSCTASGFTFGSYPMDWVRQAPGKGLEWVSYISGRGDVTYYADSVKGRFTISRDNAKNTLYLQMNSLRAEDTAVYYCAKVQSPSELLWFGELLPVDYWGQGTLVTVSS
VL: DIQMTQSPSSLSASVGDRVTITCQASQVIKTWLNWYQQKPGKAPKLLIYDASNLQRGVPSRFSGSGSGTDFTFTISSLQPEDIATYYCQQSASTPITFGGGTKVEIKR
Regarding B1, in the assay with human pro-myostatin [1], the “IC50 (nM) Pro + Furin” value worked out at 0.195 nM. For the same molecule, the “IC50 (nM) Latent + mTLL2” value in [2] amounted to 0.14 nM. The results for the Kd in the assay with human pro-myostatin [3], with murine pro-myostatin [4] and with cyno pro-myostatin [5] were 0.262 nM, 0.325 nM and 0.327 nM, respectively. Moreover, the off-rate constant (koff) worked out at 0.000213 s⁻¹ in the assay with human pro-myostatin [3], 0.000265 s⁻¹ in the assay with murine pro-myostatin [4] and 0.000269 s⁻¹ with cyno pro-myostatin [5]. For the same molecule, the kon was 813000 M⁻¹ s⁻¹ in the assay with human pro-myostatin [3], 815000 M⁻¹ s⁻¹ in the assay with murine pro-myostatin [4] and 821000 M⁻¹ s⁻¹ with cyno pro-myostatin [5]. The binding result with human GDF-11 and with mouse GDF-11 was “no binding” each time. The “EC50 (read off the curve)” value is around 0.4 nM in the assay with human pro-myostatin [6], around 0.6 nM in the assay with murine pro-myostatin [7] and around 0.3 nM in the assay with cyno pro-myostatin [8].

B2: Ab113 (antibody, human IgG4 S228P, kappa, V domains shown)
VH: QVQLVQSGAEVKKPGASVKVSCKVSGYLLTELSIHWVRQAPGKGLEWMGGIIPSFGTAIYAQKFQGRVTMTEDTSTDTAYMELSSLKSEDTAVYYCAISYSGFDLLPLDKWGQGTLVTVSS
VL: DIQMTQSPSSVSASVGDRVTITCRASQHISTWLAWYQQKPGKAPKLLIYYASSLQGGVPSRFSGSGSGTDFTLTISSLQPEDFANYYCLQTYTYPRTFGGGTKVEIKR
As for B2, the binding result in the assay with human GDF-11 and in the assay with mouse GDF-11 was “no binding” throughout. The “EC50 (read off the curve)” value with human pro-myostatin [9] is around 0.2 nM; with murine pro-myostatin [10], around 0.4 nM.

B3: Ab122 (antibody, human IgG4 S228P, kappa, V domains shown)
VH: QVTLRESGPALVKPTQTLTLTCTVSGGSLSSGGSYVNWIRQPPGKALEWLAMTDWDADNIVYNSALKSRLTISKDTSKNQVVLTMTNMDPVDTATYYCAHRQNVDSYGYWGDAFDIWGQGTMVTVSS
VL: DIVMTQSPDSLAVSLGERATINCKSSQSVLYSADNKNYLAWYQQKPGQPPKLLIYDASSLENGVPDRFSGSGSGTDFTLTISSLQAEDVAVYYCQQGHLFPYSFGGGTKVEIKR
notes: The light chain is printed ending ...NRGE, without the last C
On to B3, for which the concentration giving a half-maximal response (EC50 (read off the curve)) was around 0.5 nM with human pro-myostatin [6], around 0.6 nM with murine pro-myostatin [7] and around 0.2 nM in the assay with cyno pro-myostatin [8].

B4: Ab111 (antibody, human IgG4 S228P, kappa, V domains shown)
VH: QVQLVQSGAEVKKPGASVKVSCKVSGYTFTSNDIHWVRQAPGKGLEWMGGIFPIFGTTIYAQKFQGRVTMTEDTSTDTAYMELSSLKSEDTAVYYCAREGLGYDFDYWGQGTLVTVSS
VL: DIQMTQSPSSVSASVGDRVTITCRASQNIGNWLAWYQQKPGKAPKLLIYSASALQSGVPSRFSGSGSGTDFTLTISSLQPEDFANYYCQQSYGAPMYSFGGGTKVEIKR
Regarding B4, the binding result with human GDF-11 was “no binding”; with mouse GDF-11 it was “no binding”; with human pro-myostatin [9], “binds”; in the assay with murine pro-myostatin [10], “binds”.

B5: Ab109 (antibody, human IgG4 S228P, kappa, V domains shown)
VH: EVQLVESGGGLVQPGGSLRLSCAASGFTFSSYGMSWVRQAPGKGLELVASFTGSGGTYYPDSVKGRFTISRDNAKNSLYLQMNSLRAEDTAVYYCARDLLIRFLEWSHYYGMDVWGQGTTVTVSS
VL: DIVMTQSPLSLPVTPGEPASISCRSSQSLLHSSGHNFLHWYLQKPGQSPQLLIYEVSNRVSGVPDRFSGSGSGTDFTLKISRVEAEDVGVYYCMQQTQYPPTFGGGTKVEIKR
notes: human IgG4 in the EM experiment; also called Ab109 Human IgG4
As to B5, the “IC50 of inhibition of myostatin activation by mTLL-2 (functional ELISA, FIG. 1A)” value in [11] is 0.38 nM. Moreover, in [11], the “IC50 of inhibition of myostatin activation by mTLL-2 (functional ELISA, FIG. 1B)” value turned out to be 0.33 nM. The “IC50 (nM) Pro + Furin” value with human pro-myostatin [1] amounted to 0.214 nM. In assay [2], the “IC50 (nM) Latent + mTLL2” value worked out at 0.145 nM. Moreover, the “mTLL2 IC50” value in assay [12] was found to be 0.145 nM. For the same molecule, the Kd in the assay with human pro-myostatin [3] was determined as 0.138 nM; in the assay with murine pro-myostatin [4], 0.197 nM; with cyno pro-myostatin [5] it was 0.128 nM; in the assay with human pro-myostatin [13], 0.579 nM. In addition, the values for the kon in the assay with human pro-myostatin [3], in the assay with murine pro-myostatin [4] and with cyno pro-myostatin [5] were 6.62e+06 M⁻¹ s⁻¹, 6.81e+06 M⁻¹ s⁻¹ and 7.23e+06 M⁻¹ s⁻¹, respectively. Further, the dissociation rate constant (koff) with murine pro-myostatin [4] came out at 0.00134 s⁻¹; in the assay with cyno pro-myostatin [5] it was 0.000925 s⁻¹. Further, the “fold difference in off-rate (Kd at pH 5.5 / Kd at pH 7.4)” value in assay [14] came to 18.4 fold; in [15] it was 25 fold.

B6: Ab132 (antibody, human IgG4 S228P, kappa, V domains shown)
VH: EVQLVESGGGLVQPGGSLRLSCAASGFTFSSYGMSWVRQAPGKGLELVASFTGSGGTYYPDSVKGRFTISRDNAKNSLYLQMNSLRAEDTAVYYCARDLLIRFLEWSHYYGMDVWGQGTTVTVSS
VL: DIVMTQSPLSLPVTPGEPASISCRSSQSLLHSSGHNFLHWYLQKPGQSPQLLIYEVSNRVSGVPDRFSGSGSGTDFTLKISRVEAEDVGVYYCQQQTQYPPTFGGGTKVEIKR
As for B6, in assay [12], the “mTLL2 IC50” value is 0.144 nM. The molecule further registered a Kd with human pro-myostatin [13] of 0.926 nM. In [15], the “fold difference in off-rate (Kd at pH 5.5 / Kd at pH 7.4)” value was determined as 24 fold.

B7: Ab106 (antibody, human IgG4 S228P, kappa, V domains shown)
VH: EVQLVESGGGLVQPGGSLRLSCAASGSAFSSYGMSWVRQAPGKGLELVASINSNGGSTYYPDSVKGRFTISRDNAKNSLYLQMNSLRAEDTAVYYCARDLLVRFLEWAGYYGMDVWGQGTTVTVSS
VL: DIVMTQSPLSLPVTPGEPASISCRSSQSLLHSSGHNFLHWYLQKPGQSPQLLIYEVSNRVSGVPDRFSGSGSGTDFTLKISRVEAEDVGVYYCMQQTQYPPTFGGGTKVEIKR
As to B7, the “IC50 (nM) Pro + Furin” value with human pro-myostatin [1] was determined as 0.233 nM. Also, the “IC50 (nM) Latent + mTLL2” value in assay [2] turned out to be 0.163 nM. The Kd was determined as 0.112 nM with human pro-myostatin [3], 0.162 nM with murine pro-myostatin [4] and 0.152 nM with cyno pro-myostatin [5]. In addition, the off-rate (koff) turned out to be 0.000224 s⁻¹ in the assay with human pro-myostatin [3], 0.000317 s⁻¹ in the assay with murine pro-myostatin [4] and 0.000291 s⁻¹ in the assay with cyno pro-myostatin [5]. The kon with human pro-myostatin [3] worked out at 2e+06 M⁻¹ s⁻¹; with murine pro-myostatin [4], 1.96e+06 M⁻¹ s⁻¹; in the assay with cyno pro-myostatin [5], 1.91e+06 M⁻¹ s⁻¹. In addition, the 50% effective concentration (EC50 (read off the curve)) with cyno pro-myostatin [16] and with human pro-myostatin [17] was around 0.2 nM each time.
